Target: serpin enzyme complex receptor (secR) on IB3 cells
Assay: cell-based or functional assay

VP1 serpin virus (AAV2 capsid with serpin ligand FVFLI substituted for the capsid sequence immediately after aa 34) (from UniProt P03135 1-34; P03135 40-735; P03135 138-735; P03135 203-735)
infectivity on IB3 cells (hAAT ELISA) against wt capsid: 62 fold

— patent US20060292117A1
